By EC50 is commonly meant the midpoint of the concentration-response curve.

Positions count from the first letter of the chain named.

These results are taken from patent US20230406951A1 (Pfizer, published 2023).

The target of test [1] is human TNFR2 (human) (UniProt P20333). Briefly: cell-based or functional assay.
Test [2] has as its target T1, human TNFR2 (human, UniProt P20333 23-461).
T1 construct: expressed on the surface of CHO cells; also called HuTNFR2; TNFRSF1B
T1 sequence: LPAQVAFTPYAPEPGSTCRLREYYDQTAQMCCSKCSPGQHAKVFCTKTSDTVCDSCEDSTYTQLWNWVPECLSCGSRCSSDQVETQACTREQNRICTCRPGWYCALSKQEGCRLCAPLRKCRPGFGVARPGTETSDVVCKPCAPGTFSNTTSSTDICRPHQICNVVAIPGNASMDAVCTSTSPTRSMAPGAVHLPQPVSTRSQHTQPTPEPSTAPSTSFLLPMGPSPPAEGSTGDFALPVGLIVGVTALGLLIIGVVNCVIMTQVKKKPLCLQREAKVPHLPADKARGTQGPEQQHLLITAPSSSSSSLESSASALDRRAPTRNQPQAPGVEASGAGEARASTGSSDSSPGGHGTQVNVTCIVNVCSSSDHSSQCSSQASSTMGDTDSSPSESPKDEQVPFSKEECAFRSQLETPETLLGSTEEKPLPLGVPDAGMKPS
Briefly: binding to human TNFR2 CHO cells.

Test [3] has as its target T2, human TNFR2 (human, UniProt P20333 23-461).
T2 construct: Human TNFR2 over-expressed on CHO cells, full length on transduced NF-KB-GFP Jurkat cells, or native on human primary T cells; also called Hu TNFR2; TNFRSF1B
T2 sequence: T1 sequence
Briefly: binding to human TNFR2 CHO cells.

In test [1], “MR2-1 (Hycult Biotech, ref #HM2007) (antibody)” had an EC50 Jurkat assay, With aggregates of 0.12 µg/mL; an EC50 Jurkat assay, Without aggregates of 5.75 µg/mL; a Loss of potency (without against with aggregates) of 50 fold.

B1: TetraFab 2084 (antibody)
heavy: QVQLVQSGAEVKKPGASVKVSCKVSGFSFPSSGVDWVRQAPGQGLEWLGVTRGEGSTHYNQKFQGRVTITKDTSKSTVYMELSSLRSEDTAVYYCASGEWDEGFVYWGQGTLVTVSSASTKGPSVFPLAPSSKSTSGGTAALGCLVKDYFPEPVTVSWNSGALTSGVHTFPAVLQSSGLYSLSSVVTVPSSSLGTQTYICNVNHKPSNTKVDKKVEPKSCGGGGSQVQLVQSGAEVKKPGASVKVSCKVSGFSFPSSGVDWVRQAPGQGLEWLGVTRGEGSTHYNQKFQGRVTITKDTSKSTVYMELSSLRSEDTAVYYCASGEWDEGFVYWGQGTLVTVSSASTKGPSVFPLAPSSKSTSGGTAALGCLVKDYFPEPVTVSWNSGALTSGVHTFPAVLQSSGLYSLSSVVTVPSSSLGTQTYICNVNHKPSNTKVDKKVEPKSCDKTHTCPPCPAPEAAGAPSVFLFPPKPKDTLMISRTPEVTCVVVDVSHEDPEVKFNWYVDGVEVHNAKTKPREEQYNSTYRVVSVLTVLHQDWLNGKEYKCKVSNKALPAPIEKTISKAKGQPREPQVYTLPPSREEMTKNQVSLTCLVKGFYPSDIAVEWESNGQPENNYKTTPPVLDSDGSFFLYSKLTVDKSRWQQGNVFSCSVMHEALHNHYTQKSLSLSPGK
light: DIQLTQSPSFLSASVGDRVTITCKASQNVGTAVAWYQQKPGKAPKLLIYAASTLQSGVPSRFSGSGSGTEFTLTISSLQPEDFATYYCQQYNSYPFGGGTKVEIKRTVAAPSVFIFPPSDEQLKSGTASVVCLLNNFYPREAKVQWKVDNALQSGNSQESVTEQDSKDSTYSLSSTLTLSKADYEKHKVYACEVTHQGLSSPVTKSFNRGEC
notes: TetraFab
As for B1, in test [2], the binding result is listed as “no binding”.

B2: TetraFab 2206 (antibody, human IgG1, kappa, name in Kabat numbering)
heavy: B1 heavy with R52W, E54V, R277W, E279V
light: DIQLTQSPSFLSASVGDRVTITCKASQNVGTAVAWYQQKPGKAPKLLIYAASTLQSGVPSRFSGSGSGTEFTLTISSLQPEDFATYYCQQYNSYPFGGGTKVEIKRTVAAPSVFIFPPSDEQLKSGVTASVVCLLNNFYPREAKVQWKVDNALQSGNSQESVTEQDSKDSTYSLSSTLTLSKADYEKHKVYACEVTHQGLSSPVTKSFNRGEC
notes: TetraFab; parental heavy chain
Turning to B2, in test [2], the binding result is listed as “no binding”.

B3: TetraFab 2108 (antibody)
heavy: B1 heavy with R52H, E54S, W100S, D101T, R277H, E279S, W325S, D326T
light: B1 light
notes: TetraFab
On to B3, for which, in test [2], the binding result is reported as “no binding”.

B4: TetraFab 2096 (antibody)
heavy: B1 heavy with W100S, D101T, W325S, D326T
light: B1 light
notes: TetraFab
Take B4: in test [2], the binding result is on record as “no binding”.

B5: TetraFab 2118 (antibody)
heavy: B1 heavy with R52W, E54V, W100H, R277W, E279V, W325H
light: B1 light with N92Y, Y94T
notes: TetraFab
Regarding B5, the binding result in test [2] is on record as “no binding”.

B6: TetraFab 2112 (antibody)
heavy: B1 heavy with R52K, E54Q, R277K, E279Q
light: B1 light with N92Y, Y94T
notes: TetraFab
As for B6, the binding result in test [2] is recorded as “no binding”.

B7: TetraFab 2207 (antibody, human IgG1, kappa, name in Kabat numbering)
heavy: B1 heavy with R52W, E54V, R277W, E279V
light: B2 light with N92Y, Y94T
notes: as for B2
Regarding B7, the binding result in test [2] is on record as “no binding”.

B8: TetraFab 2098 (antibody)
heavy: B1 heavy with W100R, W325R
light: B1 light
notes: TetraFab
Take B8: the binding result in test [2] is listed as “no binding”.

B9: TetraFab 2109 (antibody)
heavy: B1 heavy with R52H, E54S, W100H, R277H, E279S, W325H
light: B1 light
notes: TetraFab
In the case of B9, the binding result in test [2] is reported as “no binding”.

B10: TetraFab 2106 (antibody)
heavy: B1 heavy with R52L, E54H, W100R, R277L, E279H, W325R
light: B1 light
notes: TetraFab
As to B10, the binding result in test [2] is “no binding”.

B11: TetraFab 2099 (antibody)
heavy: B1 heavy with W100Q, W325Q
light: B1 light
notes: TetraFab
As for B11, in test [2], the binding result was “no binding”.

B12: TetraFab 2087 (antibody)
heavy: B1 heavy with R52H, E54S, R277H, E279S
light: B1 light
notes: TetraFab
With B12, the binding result in test [2] is “no binding”.

B13: TetraFab 2125 (antibody)
heavy: B1 heavy with W100S, D101T, W325S, D326T
light: B1 light with N92Y, Y94T
notes: TetraFab
On to B13, for which, in test [2], the binding result is “no binding”.

B14: TetraFab 2113 (antibody)
heavy: B1 heavy
light: B1 light with N92Y, Y94T
notes: TetraFab
As to B14, in test [2], the binding result is “no binding”.

B15: clone 1774 (antibody, V domains shown)
VH: QVQLVQSGAEVKKPGASVKVSCKVSGFSFPSSGVDWVRQAPGQGLEWLGVTWGVGSTHYNQKFQGRVTITKDNSKSTVYMELSSLRSEDTAVYYCASGEWDEGFVYWGQGTLVTVSS
VL: DIQLTQSPSFLSASVGDRVTITCKASQNVGTAVAWYQQKPGKAPKLLIYSASNRYTGVPSRFSGSGSGTEFTLTISSLQPEDFATYYCQQYSSYPLTFGGGTKVEIK
Molecule B15 displayed a 50% effective concentration (EC50) in test [3] of 1.56 nM.

B16: IgG 1982 (antibody, name in Kabat numbering, V domains shown)
VH: B15 VH with W52F, G53Q, V54E, N73T, W100H
VL: DIQLTQSPSFLSASVGDRVTITCKASQNVGTAVAWYQQKPGKAPKLLIYAASTLQSGVPSRFSGSGSGTEFTLTISSLQPEDFATYYCQQYNSYPFGGGTKVEIKR
notes: IgG
In the case of B16, the binding result in test [2] is on record as “no binding”.

B17: IgG 1990 (antibody, name in Kabat numbering, V domains shown)
VH: B15 VH with W52H, V54S, N73T, W100H
VL: B16 VL
notes: IgG
Take B17: the binding result in test [2] is recorded as “no binding”.

B18: clone 1773 (antibody, name in Kabat numbering, V domains shown)
VH: B15 VH
VL: B15 VL with S50A, N53T, R54L, Y55Q, T56S
On to B18, for which, in test [3], the midpoint of the response, the EC50, lay at 1.13 nM.

B19: IgG 1989 (antibody, name in Kabat numbering, V domains shown)
VH: B15 VH with W52H, V54S, N73T, W100S, D101T
VL: B16 VL
notes: IgG
Regarding B19, the binding result in test [2] is “no binding”.

B20: IgG 1997 (antibody, name in Kabat numbering, V domains shown)
VH: B15 VH with W52R, V54E, N73T, W100S, D101T
VL: B16 VL with N92Y, Y94T
notes: IgG
Consider B20, for which, in test [2], the binding result was “no binding”.

B21: IgG 2203 (antibody, name in Kabat numbering, V domains shown)
VH: B15 VH with N73T
VL: B16 VL with N92Y, Y94T
notes: IgG
Regarding B21, the binding result in test [2] is “no binding”.

B22: IgG 1991 (antibody, name in Kabat numbering, V domains shown)
VH: B15 VH with W52H, V54S, N73T, W100R
VL: B16 VL
notes: IgG
In the case of B22, in test [2], the binding result is given as “no binding”.

B23: IgG 1987 (antibody, name in Kabat numbering, V domains shown)
VH: B15 VH with W52L, V54H, N73T, W100R
VL: B16 VL
notes: IgG
For the molecule B23, the binding result in test [2] was “no binding”.

B24: IgG 2202 (antibody, name in Kabat numbering, V domains shown)
VH: B15 VH with N73T
VL: B16 VL
notes: IgG
B24: the binding result in test [2] is “no binding”.

B25: IgG 2002 (antibody, name in Kabat numbering, V domains shown)
VH: B15 VH with W52F, G53Q, V54E, N73T, W100H
VL: B16 VL with N92Y, Y94T
notes: IgG
In the case of B25, in test [2], the binding result is “no binding”.

B26: IgG 1980 (antibody, name in Kabat numbering, V domains shown)
VH: B15 VH with W52R, V54E, N73T, W100Q
VL: B16 VL
notes: IgG
Turning to B26, in test [2], the binding result is recorded as “no binding”.

B27: clone 1766 (antibody, V domains shown)
VH: B15 VH with N73T
VL: B15 VL
Turning to B27, the response in test [3] was half-maximal at 1.19 nM (EC50).
